The target of test [1] is PDL1 on PDL1 aAPC/CHOK1 cells (UniProt Q9NZQ7 19-290, limits assumed). The test can be described thus: cell-based or functional assay.
Test [2] concerns the target T1, PDL1 expressed on MDA MB-231 human breast cancer cells (human, UniProt Q9NZQ7 19-290).
T1 construct: whole, on cells; also called MDA MB-231 cells
Briefly: flow cytometry on MDA MB-231 cells, anti-human IgG Fc secondary antibody. A general note: A flow cytometer gives signals particle by particle.

Test [3] addresses T2, human PD-L1 (recombinant protein, coated and in solution in the phage ELISA) (human, UniProt Q9NZQ7 19-239).
T2 construct: It is probably the same Met1-Thr239 extracellular segment that was used for selection; also called CD274; B7 homolog 1
Briefly: competitive phage ELISA, Fab on phage, soluble PD-L1 against coated PD-L1. A general note: ELISA stands for enzyme-linked immunosorbent assay.

In test [4] the target is T2, human PD-L1 (recombinant protein, …). The test can be described thus: competitive phage ELISA, ratio to 12A4 parent clone.

The results in this text go back to patent US20240287189A1 (SPARX BIOSCIENCE, published 2024).

For orientation: Kd means the concentration at which binding is half-saturated.

Residue numbers refer to the chain shown, from its start.

B1: anti-PDL1 monoclonal antibody 12A4bad (antibody, V domains shown)
VH: QVQLVQSGAEVKKPGSSVKVSCKTSGDTFSTYAISWVRQAPGQGLEWMGGIIPLFGKAHYAQKFQGRVTITADESTSTAYMELSSLRSEDTAVYFCARKFHFVRGSPFGMDVWGQGTTVTVSS
VL: EIVLTQSPATLSLSPGERATLSCRASQSVSSYLAWYQQKPGQAPRLLIYDASNRAPGIPARFSGSGSGTDFTLTISSLEPEDFAVYYCQQRSNWPTFGQGTKVEIK
notes: also called PDL1 antibody 12A4bad
For B1, the “EC50, luminescent signal in PDL1/PD1 blockage bioassay” value in test [1] was 0.344 nM. Further, in test [2], the affinity, expressed as Kd, was 0.0778 nM.

B2: 12A4a Fab displayed on phage (Fab, V domains shown)
VH: B1 VH with L54I, R104S
VL: B1 VL
Take B2: the Kd in test [3] was determined as 8.3 nM. Besides, the “Improvement from 12A4 Parent Clone” value in test [4] stood at 1.3 fold.

B3: 12A4b Fab displayed on phage (Fab, V domains shown)
VH: B1 VH with L54I
VL: not shown
Take B3: in test [4], the “Improvement from 12A4 Parent Clone” value worked out at 3.3 fold.

B4: 12A4bd Fab displayed on phage (Fab, V domains shown)
VH: B1 VH
VL: not shown
With B4, the Kd in test [3] stood at 1.8 nM. Besides, in test [4], the “Improvement from 12A4 Parent Clone” value was 6.3 fold.

B5: 12A4ad Fab displayed on phage (Fab, V domains shown)
VH: B1 VH with R104S
VL: B1 VL
With B5, the Kd in test [3] was 5 nM.

B6: 12A4bad Fab displayed on phage (Fab, V domains shown)
VH: B1 VH
VL: B1 VL
As to B6, the Kd in test [3] is 1.5 nM. Moreover, the “Improvement from 12A4 Parent Clone” value in test [4] was found to be 7.5 fold.
